These results are taken from patent US20250026813A1 (published 2025).

Positions count from the first letter of the chain named.

B1: YANG-2304 (antibody, V domains shown)
VH: QVQLVQSGTEVKKPGASVKVSCKVSGYTLPELAIHWVRQAPGKGLEWMGTFDPEDGETICAQKFQGRVTMTEDTSTDTAYMDLSSLRSEDTAVYYCATTSIIAARWWFDPWGQGTLVTVSS
VL: QSALTQPPSASGSPGQSVTISCTGTSSDVGGYDYVSWYQQHPGKAPKLMIYEVSKRPSGVPDRFSGSKSGNTASLTVSGLQAEDEADYYCSSFAGSNNVVFGGGAKLTVL
B2: YANG-2306 (antibody, V domains shown)
VH: QVQLVQSGAEVKKPGASVKVSCKVSGYTLPEISIHWVRQAPGKGLEWMGGFDPEDGETIYAQKFQGRVIMTEDTSTDTAYMDLSSLRSEDTAVYFCAAAPAIASASTFWLDPWGQGTLVTVST
VL: B1 VL with D33N, S54T, G70D, F93Y, V99L, A105T
B3: YANG-2208 (antibody, V domains shown)
VH: QIQLVQSGAEVRKPGASVRFSCKTSGYIFTNYYMVWVRQAPGQGLEWMGIIKPSGGNTIYAQKFQGRVTMTRDTSTNTVYMDLNNLRSEDTAVYFCARTGDRAFDVWGQGTMVTVSS
VL: QSVLTQPPSMSAAPGQKVTISCSGNSSNIGNNFVSWYRQFPGTAPKLLIYDNNKRPSGIPDRFSGSKSGTSATLGITGLQTGDEADYYCGTWDSSLSAGVFGGGTKLTVL
B4: YANG-2303 (antibody, V domains shown)
VH: QVQLVQSGAEVKKPGASVRVSCKVSGYTLPELAIHWVRQAPGKGLEWMGGFDPEDGETIYAQKFQGRVIMTEDTSTDTAYMDLSSLRSEDTAVYYCVKTWAAPGYNYGLDTWGQGTTVTVSS
VL: EIVLTQSPGILSLSPGESATLSCRASQSIASNYLAWFQQKPGQAPRLLIYGASSRAAGFPDRFSGSGSGTDFTLTIKRLEPEDSAVYYCQHYGSSPCSFGQGTNLEIK
B5: YANG-2305 (antibody, V domains shown)
VH: QVQLVESGGGVVQPGRSLRLSCAASGFTFSSYGMHWVRQAPGKGLEWVAIIWYDGSKKYYADSVKGRFTISRDNSKNTLNLQMNSLRAEDTAVYYCAREEDIVASGGLYYNFNGMDVWGQGTTVTVSS
VL: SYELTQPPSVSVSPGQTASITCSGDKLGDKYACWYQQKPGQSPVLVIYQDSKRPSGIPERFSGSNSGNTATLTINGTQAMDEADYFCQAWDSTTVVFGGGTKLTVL
B6: YANG-2301 (antibody, V domains shown)
VH: QVHLIQSGAEVKKPGASVKVSCKVSGYTLIEVSVHWVRQAPGKGLEWMGGFDPEAAETIYAQKFQGRVTMTEDTSTDTAYMDLSSLKSEDSAVYYCAIGPAVTGRNSGEYYYYYGMDVWGQGTTVTVAS
VL: EIVMTQSPATLSVSPGERATLSCRASQSVNSNLAWYQQKPGQAPRLLIYAVSTRATGLPARFSGSGSGTEFTLTISSLQSEDFVVYYCHQYNNWPLTFGGGTKVEIK
B7: YANG-2302 (antibody, V domains shown)
VH: QVQLVQSGAEVRKPGASVKVSCKVSGYTLPELAIHWVRQAPGKGLEWMGGFIPEDGDTIYAQKFQGRVTMTEDTSTDTAYMDLTSLRSEDAAVYYCTSGWAAPGYNYGMAVWGQGTTVTVSS
VL: EVVLTQSPGTLSLSSGERATLSCRASQSVSSNYLAWYQKKPGQAPRLLIYGASSRVTGIPDRFGGSGSGTDFTLTISRLEPEDFAVYYCQQYDASPYSFGQGTKLDIK
B8: IMPI-063 (antibody, V domains shown)
VH: EVQLVESGGGVVRPGGSLRLSCAASGFTFDDYGMSWVRQAPGKGLEWVSGIYWNGGSTGYADSVKGRFTISRDNAKNSLYLQMNSLRAEDMALYYCARGVGATDYWGQGTLVTVSS
VL: EIVLTQSPGTLSLSSGERATLACRASESVRGSFLAWYQQKPGQAPRLLIYGASRRATGIPDRFSGSGSGTDFTLTISRLEPEDFAVYYCQQYGNSPMCSFGQGTKLEIK
B9: IMPI-024 (antibody, V domains shown)
VH: EVQLVQSGAEVKKPGESLKISCKGSGYSFTSYWIGWVRQMPGKGLEWMGIIYPGDSDTRYSPSFQGQVTISADKSISTAYLQWSSLKASDTAMYYCVRSYNWNYFDYWGQGTLVTVSS
VL: AIQLTQSPSSLSASVGDRVTITCRASQGISSGLAWYQQKAGKAPKLLIYDVSSLESGVPSRFSGSGSGTDFTLTISSLQPEDFATYYCQQFLSYPWTFGQGTKVEIK
B10: IMPI-006 (antibody, V domains shown)
VH: QLQLQESGPGLVKPSETLSLTCTVSGGSISNSNYYWGWIRQPPGKGLEWIGSIYYSGRTYYNPSLKSRVTISVDTSKNQFSLKLSSVTAADTAVYYCARMGLLWFGEFYGMDVWGQGTTVTVSS
VL: DIQMTQSPSSLSASVGDRVTITCRASQGISSWLAWYQQKPEKAPKSLIYDASSLQRGVPSRFSGSGSGTDFTLTISSLQPEDFASYYCQQYNSYPLTFGGGTRVEIK
B11: IMPI-029 (antibody, V domains shown)
VH: EVQLVESGGGLIQPGGSLRLSCAASGVTVSSNYMNWVRQAPGKGLEWVSVIYSGGSTYYADSVKGRFTISRDNSKNTLFLQMNSLRAEDSAVYYCARDLGPYGVDVWGQGTTVTVSS
VL: DIQLTQSPSFLSASVGDRVTITCWASQGISSYLAWYQQKPGKAPKLLIYAASTLQSGVPSRFSGSGSGTEFTLTISSLQPEDFATYYCQELNSYPLTFGQGTRLEIK
B12: IMPI-047 (antibody, V domains shown)
VH: B11 VH with V27F, F79Y, A87T, S90T, G100V, P101A, V104M
VL: B11 VL with L46V, E90L, Y94N, Q100G, R103K, L104V
B13: IMPI-037 (antibody, V domains shown)
VH: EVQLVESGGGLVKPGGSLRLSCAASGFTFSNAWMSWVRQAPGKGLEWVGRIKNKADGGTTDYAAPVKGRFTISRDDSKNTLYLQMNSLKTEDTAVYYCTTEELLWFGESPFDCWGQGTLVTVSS
VL: B11 VL with S30N, A84T, E90Q, L91F, S93D, L96R, Q100P, R103K, L104V
B14: IMPI-017 (antibody, V domains shown)
VH: B11 VH with S25A, V27L, A40V, F79Y, S90T, P101T, Y102L, V104M
VL: B11 VL with S31T, E90Q, P95L, L96P, R103K, L104V
B15: IMPI-021 (antibody, V domains shown)
VH: B11 VH with N35S, Y58F, F79Y, S90T, G100S, P101Y, V104M
VL: B11 VL with R61K, E90Q, L96C, T97S, R103K
B16: IMPI-060 (antibody, V domains shown)
VH: B11 VH with N35S, Y58F, F79Y, S90T, G100S, P101Y, V104M
VL: B11 VL with R61K, E90Q, L96S, T97S, R103K
B17: IMPI-005 (antibody, V domains shown)
VH: B11 VH with V27F
VL: B11 VL
B18: IMPI-054 (antibody, V domains shown)
VH: EVQLVESGGGLIQPGGSLRLSCAASGLTVSSNYMSWVRQAPGKGLEWVSIIYSGGSTYYADSVKGRFTISRDNSKNTLYLQMNSLRAEDTAVYYCARLGGYYYYGMDVWGQGTTVTVSS
VL: DIQMTQSPSSLSASVGERVTITCQASQDIRNYLNWYQKKPGKAPKLLIYDSSNLETGVPSRFSGSGSGTDFTFTISSLQPEDIATYYCQQYDNLPITFGQGTRLEIK
B19: IMPI-042 (antibody, V domains shown)
VH: B18 VH
VL: B18 VL with S65G
B20: IMPI-059 (antibody, V domains shown)
VH: EVQLVESGGGLIQPGGSLRLSCAASGFTVSSIYMSWVRQAPGKGLEWVSIIYSRGSTDYADSVKGRFTISRDISKNTLYLQMNSLRAEDTAVYYCARDGTMVRGVHAFDIWGQGTMVTVSS
VL: DIQMTQSPPSLSASIGDRVTITCQASQDISNYLNWYQQKPGKAPKLLIYDASNLETGVPSRFSGSGSGTDFTLTISNLQPEDIVTYYCQQYDNLPSSFGQGTKLEIK
B21: IMPI-055 (antibody, V domains shown)
VH: QVQLVQSGAEVKKPGASVKVSCKASGYTFTSYDINWVRQATGQGLEWMGWMNPNSGNTGYAQKFQGRVTMTRDTSINTAYMELSSLRSEDTAVYFCARGGRYCSDVTCYSGEPFDYWGQGTLVTVSS
VL: EIMLTQSPDFQSVTPKEKVTITCRASQSIGSSLHWYQQKPDQSPKLLIKFASQSISGVPSRFSGSGSGTDFTLTINSLEAEDAAAYYCHQSSSLPHTFGPGTKVEIK

In the first test the target is SARS-CoV-2 spike protein bearing furin mutation and truncation in retention sequence, presented in t (SARS-CoV-2, UniProt P0DTC2 14-1273). The experiment in a line: cell-based or functional assay.
For B1, the “PV neutralisation IC50” value stood at 0.74 nM and the “PV neutralization % (Ab 1 ug/mL)” value was 52.8%.
For B2, the “PV neutralisation IC50” value turned out to be 0.43 nM and the “PV neutralization % (Ab 1 ug/mL)” value amounted to 60.4%.
With B3, the “PV neutralisation IC50” value was 4.68 nM and the “PV neutralization % (Ab 1 ug/mL)” value stood at 38.2%.
Take B4: the “PV neutralisation IC50” value was determined as 0.48 nM and the “PV neutralization % (Ab 1 ug/mL)” value is 58.6%.
B5: the “PV neutralisation IC50” value was 0.57 nM and the “PV neutralization % (Ab 1 ug/mL)” value is 64.4%.
On to B6, for which the “PV neutralisation IC50” value is 0.53 nM and the “PV neutralization % (Ab 1 ug/mL)” value was 56.4%.
In the same order, the values of B7 are 0.61 nM and 52.2%.

The target in another test is full-length stabilised spike trimer protein of SARS-CoV-2 virus (in-house, soluble ECD with trimeris (SARS-CoV-2, UniProt P0DTC2 14-1208; P10104 458-484).
Experiment: not given
On to B8, for which the “HTRF deltaF” value worked out at 968 deltaF.
Turning to B9, the “HTRF deltaF” value was found to be 1460 deltaF.
On to B10, for which the “HTRF deltaF” value was determined as 1060 deltaF.
For B11, the “HTRF deltaF” value came to 1700 deltaF.
For the molecule B12, the “HTRF deltaF” value stood at 1410 deltaF.
On to B13, for which the “HTRF deltaF” value stood at 557 deltaF.
Take B14: the “HTRF deltaF” value was 550 deltaF.
As for B15, the “HTRF deltaF” value came to 962 deltaF.
B16: the “HTRF deltaF” value is 488 deltaF.
Turning to B17, the “HTRF deltaF” value was found to be 1360 deltaF.
For B18, the “HTRF deltaF” value turned out to be 563 deltaF.
Same read-out and setting: then B19, with 926 deltaF.
With B20, the “HTRF deltaF” value came out at 403 deltaF.
Still for that read-out and setting: next, B21: 551 deltaF.

For a further test, the target named is T1, S1 subunit of the SARS-CoV-2 spike protein (Sino Biological 40591-V08H), His tag (SARS-CoV-2, UniProt P0DTC2 16-685).
T1 construct: domain: S1 subunit
Experiment: not given
With B8, the “HTRF deltaF” value was -0.4 deltaF.
Same read-out and setting: then B9, with 799 deltaF.
Regarding B10, the “HTRF deltaF” value was found to be 885 deltaF.
Regarding B11, the “HTRF deltaF” value was 3050 deltaF.
The same measure, in the same setting: then B12, with 2250 deltaF; and B13, with 626 deltaF.
On to B14, for which the “HTRF deltaF” value was determined as 752 deltaF.
The same measure, in the same setting: next, B15: 1280 deltaF; B16: 378 deltaF.
Turning to B17, the “HTRF deltaF” value was determined as 1510 deltaF.
For the molecule B18, the “HTRF deltaF” value is 772 deltaF.
Take B19: the “HTRF deltaF” value is 617 deltaF.
B20: the “HTRF deltaF” value was determined as 569 deltaF.
The same measure, in the same setting: next, B21: 1030 deltaF.
